For the assay, the target named is Prostate specific membrane antigen (PSMA) (UniProt Q04609). In words: competitive binding on LNCaP or PC3-PIP cells; displacement of 12 nM N-[N-[(S)-1,3-dicarboxypropyl]carbamoyl]-S-[3H]-methyl-L-cysteine, scintillation counting.

As a reminder, the pIC50 is the IC50 on a negative log10 scale, so that one unit is a factor of ten. Read a high pIC50 as a low IC50.

pIC50: −log10 of the molar value.

Chain of Prostate specific membrane antigen (PSMA) (Q04609 whole entry): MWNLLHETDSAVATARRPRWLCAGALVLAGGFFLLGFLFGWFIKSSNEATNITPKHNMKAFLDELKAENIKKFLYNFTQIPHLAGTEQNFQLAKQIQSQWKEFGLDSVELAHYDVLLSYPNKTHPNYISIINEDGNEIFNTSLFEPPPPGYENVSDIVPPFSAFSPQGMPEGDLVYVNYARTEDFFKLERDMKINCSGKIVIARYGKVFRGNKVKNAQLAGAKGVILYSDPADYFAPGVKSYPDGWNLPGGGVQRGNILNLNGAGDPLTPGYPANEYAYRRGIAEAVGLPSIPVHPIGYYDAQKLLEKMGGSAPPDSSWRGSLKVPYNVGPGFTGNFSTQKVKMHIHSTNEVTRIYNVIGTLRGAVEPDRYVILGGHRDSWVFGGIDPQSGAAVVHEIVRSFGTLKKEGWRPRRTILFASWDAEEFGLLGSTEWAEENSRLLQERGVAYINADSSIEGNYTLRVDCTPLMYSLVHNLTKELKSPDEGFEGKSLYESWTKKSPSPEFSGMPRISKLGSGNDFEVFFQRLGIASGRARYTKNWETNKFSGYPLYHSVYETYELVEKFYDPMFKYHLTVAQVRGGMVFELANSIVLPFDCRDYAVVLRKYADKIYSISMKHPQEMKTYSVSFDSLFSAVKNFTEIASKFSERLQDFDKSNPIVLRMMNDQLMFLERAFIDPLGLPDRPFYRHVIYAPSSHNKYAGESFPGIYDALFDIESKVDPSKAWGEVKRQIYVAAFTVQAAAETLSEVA

“ZJ-MCC-Ahx-dEdEdEG (Compound 1) (peptide)”: the pIC50 is 8.66.

The record behind these values is patent US9713649.
